Patent CN106117359A (UNIV SUN YAT SEN, dated 2016)

Legend:
[1] = molecular target: CD3 on Jurkat细胞 (Jurkat靶标细胞) (human) (UniProt P07766); experiment: flow cytometry (FACSCalibur), culture supernatant on Jurkat cells; negative control sdAb
CD3-His蛋白(MP-5) = molecular target: T1, CD3-His蛋白(MP-5) (human, UniProt P07766 23-126); experiment: BLI (Octet RED96) off-rate screening; sdAb-SASA from expression medium captured on BSA-coated biosensor, CD3 at 100 nM in solution, 30°C, 1:1 Langmuir model
T1 construct: also called CD3蛋白; not shown: His tag

[2] = molecular target: CD3 on Jurkat细胞 (Jurkat靶标细胞) (human) (UniProt P07766); experiment: flow cytometry (FACSCalibur), culture supernatant on Jurkat cells

T1 sequence (P07766 23-126): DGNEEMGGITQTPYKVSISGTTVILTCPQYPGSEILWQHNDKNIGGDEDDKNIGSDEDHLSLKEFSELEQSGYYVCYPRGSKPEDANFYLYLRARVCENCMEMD

Molecule | MFI [1] | koff (CD3-His蛋白(MP-5)) | MFI [2]
NC-sdAb (相同形式的非相关性sdAb) (VHH) | 115 MFI | – | –
抗CD3单域抗体 C12 (sdAb clone C12) (VHH, Llama sdAb from a phage display library; Tested as unpurified sdAb-SASA protein in E. coli expression medium or culture supernatant; 1 in its text; also called sdAb-SASA; not shown: SASA fusion partner from the pFASEBA vector (sdAb-SASA protein in expression medium)) VHH: QVQLQESGGGLVQPGGSLRLSCAASGSMYRPNTMGWHRQAPGEQRKLVARITSDGNTNYADSVKGRFTISRDNAKNTVHLEMNSLQPEDTAVYYCYYSDFVNLRGFWGQGTQVTVSS | – | 6.61e-05 s⁻¹ | 2330 MFI
